Results as given in article PMC9729238 (Communications Biology, 2022).

B1: Weak toxin from Naja kaouthia venom (WTX), recombinant analog (natural protein)
chain: MLTCLNCPEMFCGKFQICRNGEKICFKKLHQRRPLSWRYIRGCADTCPVGKPYEMIECCSTDKCNR
modifications: disulfide (positions not given here); also: five disulfide bonds, pairing not given here

What was measured:
[1] = target: Chimera of the α7-nAChR extracellular domain with acetylcholine-binding protein (α7-ECD) (human α7-nAChR / Lymnaea stagnalis AChBP chimera); assay: cryo-EM structure
[2] = target: T1, Nicotinic acetylcholine receptor of α7 type (α7-nAChR) expressed in HEK293 cells (UniProt P36544 23-502); assay: flow cytometry on cells; conditions: one partner purified
T1 construct: also called full-length α7 receptor; α7 receptor

Row | Molecule | stoichiometry N [1] | IC50 [2] [µM]
1 | Chimera of the α7-nAChR extracellular domain with acetylcholine-binding protein (α7-ECD) (domain or fragment) | 5 | 
2 | B1 |  | 26 ± 4
